The text below walks through data of IntAct's records for PubMed 29039417.

B1: Protein PTHB1 (Homo sapiens), Q3SYG4 (parent)
chain: MSLFKARDWWSTILGDKEEFDQGCLCLANVDNSGNGQDKIIVGSFMGYLRIFSPHPAKTGDGAQAEDLLLEVDLRDPVLQVEVGKFVSGTEMLHLAVLHSRKLCVYSVSGTLGNVEHGNQCQMKLMYEHNLQRTACNMTYGSFGGVKGRDLICIQSMDGMLMVFEQESYAFGRFLPGFLLPGPLAYSSRTDSFLTVSSCQQVESYKYQVLAFATDADKRQETEQQKLGSGKRLVVDWTLNIGEQALDICIVSFNQSASSVFVLGERNFFCLKDNGQIRFMKKLDWSPSCFLPYCSVSEGTINTLIGNHNNMLHIYQDVTLKWATQLPHIPVAVRVGCLHDLKGVIVTLSDDGHLQCSYLGTDPSLFQAPNVQSRELNYDELDVEMKELQKIIKDVNKSQGVWPMTEREDDLNVSVVVSPNFDSVSQATDVEVGTDLVPSVTVKVTLQNRVILQKAKLSVYVQPPLELTCDQFTFEFMTPDLTRTVSFSVYLKRSYTPSELEGNAVVSYSRPTDRNPDGIPRVIQCKFRLPLKLICLPGQPSKTASHKITIDTNKSPVSLLSLFPGFASQSDDDQVNVMGFHFLGGARITVLASKTSQRYRIQSEQFEDLWLITNELILRLQEYFEKQGVKDFACSFSGSIPLQEYFELIDHHFELRINGEKLEELLSERAVQFRAIQRRLLARFKDKTPAPLQHLDTLLDGTYKQVIALADAVEENQGNLFQSFTRLKSATHLVILLIALWQKLSADQVAILEAAFLPLQEDTQELGWEETVDAAISHLLKTCLSKSSKEQALNLNSQLNIPKDTSQLKKHITLLCDRLSKGGRLCLSTDAAAPQTMVMPGGCTTIPESDLEERSVEQDSTELFTNHRHLTAETPRPEVSPLQGVSE
partner: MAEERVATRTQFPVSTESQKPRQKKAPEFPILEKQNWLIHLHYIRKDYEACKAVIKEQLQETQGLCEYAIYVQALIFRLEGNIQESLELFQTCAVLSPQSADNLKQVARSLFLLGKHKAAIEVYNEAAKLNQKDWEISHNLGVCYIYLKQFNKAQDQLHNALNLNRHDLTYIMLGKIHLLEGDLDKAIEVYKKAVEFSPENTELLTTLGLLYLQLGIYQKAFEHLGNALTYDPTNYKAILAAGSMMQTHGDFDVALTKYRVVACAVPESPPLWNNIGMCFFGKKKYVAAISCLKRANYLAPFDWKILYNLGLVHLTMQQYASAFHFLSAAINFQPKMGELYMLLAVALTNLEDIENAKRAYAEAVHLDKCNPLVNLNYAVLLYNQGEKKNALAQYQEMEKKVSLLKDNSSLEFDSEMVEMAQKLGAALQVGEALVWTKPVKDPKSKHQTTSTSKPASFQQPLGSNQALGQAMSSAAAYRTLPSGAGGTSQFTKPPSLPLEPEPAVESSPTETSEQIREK

The variants in the experiment derive from B1. The conditions noted are these: with bbs4_human BBS4, Q96RK4.
As for Q672E, the “effect of a mutation on the interaction” value is given as “with no effect”.

With Q883E, the “effect of a mutation on the interaction” value was “with no effect”.

Regarding V557K, the “effect of a mutation on the interaction” value is “with no effect”.

In the case of L481A, the “effect of a mutation on the interaction” value is on record as “with no effect”.

For the variant L481E, the “effect of a mutation on the interaction” value is recorded as “with no effect”.

As to S635A, the “effect of a mutation on the interaction” value is recorded as “with no effect”.

In the case of T405E, the “effect of a mutation on the interaction” value is on record as “with no effect”.

As to K456E, the “effect of a mutation on the interaction” value was “with no effect”.

L620K: the “effect of a mutation on the interaction” value is “with no effect”.

On to E622K, for which the “effect of a mutation on the interaction” value is reported as “with no effect”.

On to R407E, for which the “effect of a mutation on the interaction” value is recorded as “with no effect”.

Regarding D572N, the “effect of a mutation on the interaction” value is on record as “disrupting interaction strength”.

With D572K, the “effect of a mutation on the interaction” value is recorded as “with no effect”.

On to L808A, for which the “effect of a mutation on the interaction” value is recorded as “with no effect”.

Consider I640K, for which the “effect of a mutation on the interaction” value is “with no effect”.

G841E: the “effect of a mutation on the interaction” value was “with no effect”.

As to A455K, the “effect of a mutation on the interaction” value is reported as “with no effect”.

Take P438K: the “effect of a mutation on the interaction” value is “with no effect”.

Turning to H811A, the “effect of a mutation on the interaction” value is given as “with no effect”.

As to D747A, the “effect of a mutation on the interaction” value is on record as “disrupting interaction strength”.

On to D747N, for which the “effect of a mutation on the interaction” value is listed as “disrupting interaction strength”.

In the case of T861E, the “effect of a mutation on the interaction” value was “with no effect”.

For V461A, the “effect of a mutation on the interaction” value is given as “with no effect”.

For Q471A, the “effect of a mutation on the interaction” value is “with no effect”.

Consider N448A, for which the “effect of a mutation on the interaction” value is given as “with no effect”.

As for M477K, the “effect of a mutation on the interaction” value is “with no effect”.

Turning to P520A, the “effect of a mutation on the interaction” value was “with no effect”.

In the case of K454E, the “effect of a mutation on the interaction” value is reported as “with no effect”.

Q569E: the “effect of a mutation on the interaction” value is “with no effect”.

Take P689E: the “effect of a mutation on the interaction” value was “with no effect”.

As to R854K, the “effect of a mutation on the interaction” value is recorded as “with no effect”.

As to S494A, the “effect of a mutation on the interaction” value is on record as “with no effect”.

Consider Q426E, for which the “effect of a mutation on the interaction” value is recorded as “with no effect”.

Regarding P537L, the “effect of a mutation on the interaction” value is given as “disrupting interaction strength”.

P537K: the “effect of a mutation on the interaction” value is given as “with no effect”.

In the case of I657E, the “effect of a mutation on the interaction” value was “with no effect”.

On to F487K, for which the “effect of a mutation on the interaction” value is recorded as “with no effect”.

In the case of L655K, the “effect of a mutation on the interaction” value is listed as “with no effect”.

On to T543E, for which the “effect of a mutation on the interaction” value is “with no effect”.

As to K594E, the “effect of a mutation on the interaction” value was “with no effect”.

On to G584A, for which the “effect of a mutation on the interaction” value is “with no effect”.

Regarding P641E, the “effect of a mutation on the interaction” value is “with no effect”.

As to K803A, the “effect of a mutation on the interaction” value is “with no effect”.

Consider L733E, for which the “effect of a mutation on the interaction” value is reported as “with no effect”.

As to F582E, the “effect of a mutation on the interaction” value is reported as “with no effect”.

As to Q807K, the “effect of a mutation on the interaction” value is reported as “with no effect”.

On to K443A, for which the “effect of a mutation on the interaction” value is on record as “with no effect”.

Regarding L609K, the “effect of a mutation on the interaction” value is reported as “with no effect”.

With S828K, the “effect of a mutation on the interaction” value was “with no effect”.

Turning to K661A, the “effect of a mutation on the interaction” value was “with no effect”.

As for S423K, the “effect of a mutation on the interaction” value is recorded as “with no effect”.

E664K: the “effect of a mutation on the interaction” value was “with no effect”.

For A427E, the “effect of a mutation on the interaction” value was “with no effect”.

Regarding G502K, the “effect of a mutation on the interaction” value was “with no effect”.

For T782A, the “effect of a mutation on the interaction” value is recorded as “with no effect”.

Regarding L611C, the “effect of a mutation on the interaction” value is “disrupting interaction strength”.

Take L591K: the “effect of a mutation on the interaction” value is given as “with no effect”.

For the variant T613K, the “effect of a mutation on the interaction” value is given as “with no effect”.

Turning to F684A, the “effect of a mutation on the interaction” value is “with no effect”.

As to Q764E, the “effect of a mutation on the interaction” value was “with no effect”.

Turning to N614K, the “effect of a mutation on the interaction” value is given as “with no effect”.

Take D773E: the “effect of a mutation on the interaction” value is reported as “with no effect”.

As to C826K, the “effect of a mutation on the interaction” value is “with no effect”.

As to Q539A, the “effect of a mutation on the interaction” value is listed as “with no effect”.

As to F476A, the “effect of a mutation on the interaction” value is given as “with no effect”.

With Y645K, the “effect of a mutation on the interaction” value is reported as “with no effect”.

With L616E, the “effect of a mutation on the interaction” value is listed as “with no effect”.

On to P875E, for which the “effect of a mutation on the interaction” value is listed as “with no effect”.

In the case of S545A, the “effect of a mutation on the interaction” value is listed as “with no effect”.

Turning to F721A, the “effect of a mutation on the interaction” value is reported as “with no effect”.

For the variant L766C, the “effect of a mutation on the interaction” value is on record as “disrupting interaction strength”.

For the variant P464K, the “effect of a mutation on the interaction” value was “with no effect”.

For the variant V577K, the “effect of a mutation on the interaction” value is listed as “with no effect”.

With V577E, the “effect of a mutation on the interaction” value is recorded as “with no effect”.

Turning to N800K, the “effect of a mutation on the interaction” value was “with no effect”.

On to D551K, for which the “effect of a mutation on the interaction” value is recorded as “with no effect”.

On to V575E, for which the “effect of a mutation on the interaction” value is listed as “with no effect”.

For Q760A, the “effect of a mutation on the interaction” value is on record as “with no effect”.

In the case of P802A, the “effect of a mutation on the interaction” value is “with no effect”.

For C535A, the “effect of a mutation on the interaction” value is on record as “with no effect”.

As for T702C, the “effect of a mutation on the interaction” value is recorded as “disrupting interaction strength”.

As to T702K, the “effect of a mutation on the interaction” value was “with no effect”.

Consider D711E, for which the “effect of a mutation on the interaction” value is on record as “with no effect”.

As to S667E, the “effect of a mutation on the interaction” value was “with no effect”.

Consider A774K, for which the “effect of a mutation on the interaction” value is recorded as “with no effect”.

For A792E, the “effect of a mutation on the interaction” value is listed as “with no effect”.

Turning to P516E, the “effect of a mutation on the interaction” value is “with no effect”.

Turning to S806A, the “effect of a mutation on the interaction” value is “with no effect”.

For A708K, the “effect of a mutation on the interaction” value is “with no effect”.

V885A: the “effect of a mutation on the interaction” value was “with no effect”.

As for L727A, the “effect of a mutation on the interaction” value is on record as “with no effect”.
